Values belong to the sequence of their own block, whether it stands above or below them.
Assays:
[1] = biological target: HLA-A*01:01; test: IEDB peptide-MHC binding, purified MHC/competitive/radioactivity; filed as Kd, often an IC50 or EC50 that approximates it; ≥ and ≤ were set here for values at or beyond the usual limits of such assays; conditions: source organism: Hepatitis C virus (isolate 1)
[2] = biological target: HLA-A*02:01; test: as above
[3] = biological target: HLA-A*02:02; test: as above
[4] = biological target: HLA-A*02:03; test: as above
[5] = biological target: HLA-A*02:06; test: as above
[6] = biological target: HLA-A*03:01; test: as above
[7] = biological target: HLA-A*11:01; test: as above
[8] = biological target: HLA-A*31:01; test: as above
[9] = biological target: HLA-A*33:01; test: as above
[10] = biological target: HLA-A*68:01; test: as above
[11] = biological target: HLA-A*68:02; test: as above
[12] = biological target: HLA-B*08:01; test: as above; conditions: source organism: Hepatitis C virus (isolate 1)
[13] = biological target: HLA-B*40:01; test: as above; conditions: source organism: Hepatitis C virus (isolate 1)
[14] = biological target: HLA-B*40:02; test: as above; conditions: source organism: Hepatitis C virus (isolate 1)
[15] = biological target: HLA-B*44:02; test: as above; conditions: source organism: Hepatitis C virus (isolate 1)
[16] = biological target: HLA-B*44:03; test: as above; conditions: source organism: Hepatitis C virus (isolate 1)
[17] = biological target: HLA-B*53:01; test: as above
[18] = biological target: HLA-B*54:01; test: as above
[19] = biological target: HLA-A*02:01; test: IEDB peptide-MHC binding, purified MHC/competitive/fluorescence; ≥ and ≤ were set here for values at or beyond the usual limits of such assays
[20] = biological target: HLA-A*03:01; test: as above
[21] = biological target: HLA-A*11:01; test: as above
[22] = biological target: HLA-A*24:02; test: as above; conditions: source organism: Zaire ebolavirus
[23] = biological target: HLA-A*01:01; test: IEDB peptide-MHC binding, purified MHC/competitive/fluorescence; filed as Kd, often an IC50 or EC50 that approximates it; ≥ and ≤ were set here for values at or beyond the usual limits of such assays; conditions: source organism: Influenza A virus (A/equine/California/8560/2002(H3N8))
[24] = biological target: HLA-B*48:01; test: IEDB peptide-MHC binding, purified MHC/direct/fluorescence; filed as Kd, often an IC50 or EC50 that approximates it; ≥ and ≤ were set here for values at or beyond the usual limits of such assays
[25] = biological target: HLA-A*02:01; test: IEDB peptide-MHC binding, purified MHC/competitive/fluorescence; filed as Kd, often an IC50 or EC50 that approximates it; ≥ and ≤ were set here for values at or beyond the usual limits of such assays; conditions: source organism: Burkholderia vietnamiensis G4
[26] = biological target: HLA-A*02:19; test: as above; conditions: source organism: Burkholderia vietnamiensis G4
[27] = biological target: HLA-A*30:01; test: IEDB peptide-MHC binding, purified MHC/competitive/radioactivity; filed as Kd, often an IC50 or EC50 that approximates it; ≥ and ≤ were set here for values at or beyond the usual limits of such assays; conditions: source organism: Vaccinia virus WR
[28] = biological target: HLA-B*07:02; test: as above; conditions: source organism: Vaccinia virus WR
[29] = biological target: HLA-B*35:01; test: as above; conditions: source organism: Vaccinia virus WR
[30] = biological target: HLA-B*51:01; test: as above; conditions: source organism: Vaccinia virus WR
[31] = biological target: HLA-A*01:01; test: IEDB peptide-MHC binding, purified MHC/direct/fluorescence; filed as Kd, often an IC50 or EC50 that approximates it; ≥ and ≤ were set here for values at or beyond the usual limits of such assays; conditions: source organism: Mycobacterium tuberculosis C
[32] = biological target: HLA-A*03:01; test: as above; conditions: source organism: Mycobacterium tuberculosis C
[33] = biological target: HLA-A*11:01; test: as above; conditions: source organism: Mycobacterium tuberculosis C
[34] = biological target: HLA-A*31:01; test: as above; conditions: source organism: Mycobacterium tuberculosis C
[35] = biological target: HLA-B*07:02; test: as above; conditions: source organism: Mycobacterium tuberculosis C
[36] = biological target: HLA-B*08:01; test: as above; conditions: source organism: Mycobacterium tuberculosis C
[37] = biological target: HLA-B*15:01; test: as above; conditions: source organism: Mycobacterium tuberculosis C
[38] = biological target: HLA-B*18:01; test: as above; conditions: source organism: Mycobacterium tuberculosis C
[39] = biological target: HLA-B*40:01; test: as above; conditions: source organism: Mycobacterium tuberculosis C
[40] = biological target: HLA-B*44:02; test: as above; conditions: source organism: Mycobacterium tuberculosis C
[41] = biological target: HLA-B*46:01; test: as above; conditions: source organism: Mycobacterium tuberculosis C
[42] = biological target: HLA-B*57:01; test: as above; conditions: source organism: Mycobacterium tuberculosis C
[43] = biological target: HLA-B*58:01; test: as above; conditions: source organism: Mycobacterium tuberculosis C
[44] = biological target: HLA-B*51:01; test: IEDB peptide-MHC binding, purified MHC/competitive/fluorescence; filed as Kd, often an IC50 or EC50 that approximates it; ≥ and ≤ were set here for values at or beyond the usual limits of such assays; conditions: source organism: Mycobacterium tuberculosis C
[45] = source organism: Hepatitis C virus (isolate 1)
[46] = source organism: Triticum aestivum
[47] = source organism: Zaire ebolavirus
[48] = source organism: HIV-1 M:B_ARV2/SF2
[49] = source organism: Vaccinia virus Copenhagen
[50] = source organism: Vaccinia virus
[51] = source organism: Vaccinia virus WR
[52] = source organism: Sudan ebolavirus

Sequence: HPNIEEVAL
Kd [1]: 16 µM | Kd [2, 45]: ≥ 70.5 µM | Kd [3, 45]: 4 µM | Kd [4, 45]: 17.2 µM | Kd [5, 45]: ≥ 67.3 µM | Kd [6, 45]: ≥ 78 µM | Kd [7, 45]: ≥ 77.9 µM | Kd [8, 45]: ≥ 77.9 µM | Kd [9, 45]: ≥ 77.7 µM | Kd [10, 45]: ≥ 57.9 µM | Kd [11, 45]: ≥ 69.8 µM | Kd [12]: ≥ 36 µM | Kd [13]: ≥ 76.2 µM | Kd [14]: ≥ 77.3 µM | Kd [15]: ≥ 78 µM | Kd [16]: ≥ 48.2 µM | Kd [17, 45]: 0.163 µM | Kd [18, 45]: 4.57 µM

Kd [2, 46]: 0.0913 µM | Kd [3, 46]: 0.436 µM | Kd [4, 46]: 0.0188 µM | Kd [5, 46]: 0.0275 µM | Kd [11, 46]: ≥ 56.5 µM
Sequence: LQQSTYQLV

Sequence: TNAMVTLRK
IC50 [19, 47]: ≥ 1090 µM | IC50 [20, 47]: 6.42 µM | IC50 [21, 47]: 0.311 µM | IC50 [22]: ≥ 188 µM

Sequence: VIYQYMDDL
Kd [2, 48]: 5.84 µM | Kd [3, 48]: 0.156 µM | Kd [4, 48]: 4.74 µM | Kd [5, 48]: 7.68 µM | Kd [11, 48]: ≥ 56.2 µM

Sequence: MTIASVPTSRY
Kd [23]: 2.04 µM

Sequence: ANCSSISIK
IC50 [20, 49]: 42.4 µM | IC50 [21, 49]: 2.78 µM

Sequence: KILMNFHQK
IC50 [19, 47]: ≥ 95.4 µM | IC50 [20, 47]: 3.35 µM | IC50 [21, 47]: 0.441 µM | IC50 [22]: 50.3 µM

Sequence: LEYKTLCDM
IC50 [20, 50]: ≥ 289 µM | IC50 [21, 50]: 44.8 µM

Sequence: LSVETITEK
IC50 [19, 49]: ≥ 134 µM | IC50 [20, 49]: ≥ 101 µM | IC50 [21, 49]: 6.6 µM | Kd [8, 51]: 2.92 µM | Kd [9, 51]: 1.52 µM | Kd [10, 51]: 0.261 µM

Sequence: VLYYHMMKD
IC50 [19, 47]: 48.1 µM | IC50 [20, 47]: 26 µM | IC50 [21, 47]: 12.6 µM

Sequence: LGLRKRSRR
IC50 [20, 52]: 6.72 µM | IC50 [21, 52]: 65.8 µM

Sequence: NRSTKGGQQ
IC50 [20, 47]: ≥ 286 µM | IC50 [21, 47]: ≥ 140 µM

Sequence: QIIHDFVDK
IC50 [19, 47]: ≥ 262 µM | IC50 [20, 47]: ≥ 97.5 µM | IC50 [21, 47]: 6.34 µM

Sequence: HIPGDTLFK
IC50 ([20]; source organism: Variola virus): 6.64 µM | IC50 ([21]; source organism: Variola virus): 0.735 µM

Sequence: LRTFSILNR
IC50 [19, 47]: ≥ 248 µM | IC50 [20, 47]: ≥ 111 µM | IC50 [21, 47]: 33.1 µM

Sequence: EQGKQHAWL
Kd ([24]; source organism: Burkholderia mallei ATCC 23344): ≥ 20 µM

Sequence: WFMTWQPNI
Kd [25]: 0.54 µM | Kd [26]: 0.0528 µM

Sequence: MTIREFPRK
Kd [2, 51]: ≥ 78.1 µM | Kd [3, 51]: ≥ 77.8 µM | Kd [4, 51]: ≥ 78.1 µM | Kd [5, 51]: ≥ 65.6 µM | Kd [6, 51]: 0.00627 µM | Kd [7, 51]: 0.00392 µM | Kd [27]: 0.00159 µM | Kd [8, 51]: 0.0998 µM | Kd [9, 51]: 1.38 µM | Kd [10, 51]: 0.00619 µM | Kd [11, 51]: 3.32 µM | Kd [28]: ≥ 77.5 µM | Kd [29]: ≥ 77.4 µM | Kd [30]: ≥ 77.5 µM | Kd [17, 51]: ≥ 78.2 µM | Kd [18, 51]: ≥ 78.1 µM

Sequence: TPKIRFWHV
Kd [31]: ≥ 20 µM | Kd [32]: ≥ 20 µM | Kd [33]: ≥ 20 µM | Kd [34]: ≥ 20 µM | Kd [35]: ≥ 20 µM | Kd [36]: 0.0915 µM | Kd [37]: ≥ 20 µM | Kd [38]: ≥ 20 µM | Kd [39]: ≥ 20 µM | Kd [40]: ≥ 20 µM | Kd [41]: ≥ 20 µM | Kd ([24]; source organism: Mycobacterium tuberculosis C): ≥ 20 µM | Kd [42]: ≥ 20 µM | Kd [43]: ≥ 20 µM | Kd [44]: ≥ 20 µM

— the Immune Epitope Database (IEDB)
